{
  "source": "paper PMC8153049",
  "about": "(ACS chemical biology, 2020)",
  "assay_in_all_cases": "steady-state kinetics, HPLC of amide product",
  "format_in_all_cases": "biochemical, Streptomyces sp. CB02304",
  "key": {"[1]": {"target": "PtmC^t (Streptomyces platensis, UniProt D8L2W0)", "sequence (D8L2W0 1-279 limits assumed)": "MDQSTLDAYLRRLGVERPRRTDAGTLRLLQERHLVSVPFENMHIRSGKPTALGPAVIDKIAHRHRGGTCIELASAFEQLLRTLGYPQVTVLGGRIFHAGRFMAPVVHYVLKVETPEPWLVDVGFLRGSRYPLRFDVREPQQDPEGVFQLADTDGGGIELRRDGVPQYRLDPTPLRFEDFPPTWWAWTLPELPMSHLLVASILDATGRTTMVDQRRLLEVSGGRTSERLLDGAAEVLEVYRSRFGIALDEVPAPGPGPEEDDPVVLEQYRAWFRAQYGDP", "details": "8 at 750 μM (partial saturation), 16 varied 10-200 μM; 50 mM MOPS pH 6.5"}, "[2]": {"test_system": "Nc1c(O)ccc(C(=O)S)c1O", "details": "16 at 250 μM, 9 varied 25-1500 μM, 50 mM MOPS pH 6.5, 30 °C"}, "[3]": {"test_system": "Nc1c(O)ccc(C(=O)O)c1O", "details": "16 at 250 μM"}, "[4]": {"details": "8 varied 25-1500 μM, 50 mM MOPS pH 6.5, 30 °C"}, "[5]": {"details": "8 varied 100-1000 μM, 50 mM MOPS pH 6.5"}},
  "data": [
    {"compound": "CC(C)(COP(=O)(O)OP(=O)(O)OC[C@H]1O[C@@H](n2cnc3c(N)ncnc32)[C@H](O)[C@@H]1OP(=O)(O)O)[C@@H](O)C(=O)NCCC(=O)NCCSC(=O)CC[C@]1(C)C(=O)C=C[C@]23C[C@H]4C[C@H](O[C@@]4(C)C2)[C@H]31", "note": "[compound 16, platensicyl-CoA]", "values": [
      {"measurement": "Km", "setting": "[1]", "result": "23.7 ± 6.1", "unit": "µM"}
    ]},
    {"compound": "PtmC (Streptomyces platensis)", "values": [
      {"measurement": "Km", "setting": "[2]", "result": "142 ± 54", "unit": "µM"},
      {"measurement": "kcat", "setting": "[2]", "result": "4.7 ± 0.067", "unit": "s⁻¹"},
      {"measurement": "Km", "setting": "[3]; [4]", "result": "372 ± 49", "unit": "µM"},
      {"measurement": "kcat", "setting": "[3]; [4]", "result": "1.54 ± 0.075", "unit": "s⁻¹"}
    ]},
    {"compound": "PtmC^t (Streptomyces platensis)", "values": [
      {"measurement": "Km", "setting": "[3]; [5]", "result": "375 ± 119", "unit": "µM"},
      {"measurement": "kcat", "setting": "[3]; [5]", "result": "0.318 ± 0.0417", "unit": "s⁻¹"}
    ]}
  ]
}
